The target of assay [1] is T1, FcγRIIb extracellular domain with C-terminal His tag (human, UniProt P31994 43-217).
T1 construct: extracellular domain; expressed in FreeStyle293 cells; analyte in Biacore; also called FcgRIIb; 2b
T1 sequence (looked up): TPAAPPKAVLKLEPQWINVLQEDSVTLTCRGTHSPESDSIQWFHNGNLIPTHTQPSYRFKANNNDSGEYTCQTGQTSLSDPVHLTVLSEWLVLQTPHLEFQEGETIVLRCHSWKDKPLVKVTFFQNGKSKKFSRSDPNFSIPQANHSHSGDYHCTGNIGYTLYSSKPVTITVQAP
Kind of assay: SPR (Biacore), captured antibody, FcγR as analyte; relative binding.

Assay [2] deals with T2, FcγRIa extracellular domain with C-terminal His tag (human, UniProt P12314 16-292).
T2 construct: extracellular domain; expressed in FreeStyle293 cells; analyte in Biacore; also called FcgRI; 1a
T2 sequence (P12314 16-292): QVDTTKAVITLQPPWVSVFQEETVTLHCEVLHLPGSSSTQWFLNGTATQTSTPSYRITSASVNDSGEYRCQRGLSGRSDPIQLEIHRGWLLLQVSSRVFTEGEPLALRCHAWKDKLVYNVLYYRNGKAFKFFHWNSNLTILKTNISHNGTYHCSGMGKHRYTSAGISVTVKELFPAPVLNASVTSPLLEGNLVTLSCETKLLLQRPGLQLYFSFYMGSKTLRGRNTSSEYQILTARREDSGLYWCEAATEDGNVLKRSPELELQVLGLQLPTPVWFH
The description is as above.

The results in this text go back to patent publication US20150344570A1 (published 2015).

B1: GpH7-A5/GpH7-B3 variant Y296_13S/GpL16-k0 (antibody, human IgG1, kappa)
heavy 1: not shown
heavy 2: not shown
light: DIVMTQSPLSLPVTPGEPASISCQASESLVHSNRNTYLHWYLQKPGQSPQLLIYKVSNRFSGVPDRFSGSGSGTDFTLKISRVEAEDVGVYYCSQNTHVPPTFGQGTKVEIERTVAAPSVFIFPPSDEQLKSGTASVVCLLNNFYPREAKVQWKVDNALQSGNSQESVTEQDSKDSTYSLSSTLTLSKADYEKHKVYACEVTHQGLSSPVTKSFNRGEC
notes: He Ab; IgG1, mutation in one H chain
As to B1, the He/Con_2b in assay [1] is 86.3 % of HeCon Ab (GpH7-A5/GpH7-B3/GpL16-k0 = 100). Besides, the He/Con_1a in assay [2] is 105 % of HeCon Ab (GpH7-A5/GpH7-B3/GpL16-k0 = 100).

B2: GpH7-A5/GpH7-B3 variant Y300_07I/GpL16-k0 (antibody, human IgG1, kappa)
heavy 1: not shown
heavy 2: not shown
light: DIVMTQSPLSLPVTPGEPASISCQASESLVHSNRNTYLHWYLQKPGQSPQLLIYKVSNRFSGVPDRFSGSGSGTDFTLKISRVEAEDVGVYYCSQNTHVPPTFGQGTKVEIERTVAAPSVFIFPPSDEQLKSGTASVVCLLNNFYPREAKVQWKVDNALQSGNSQESVTEQDSKDSTYSLSSTLTLSKADYEKHKVYACEVTHQGLSSPVTKSFNRGEC
notes: as for B1
Regarding B2, in assay [1], the He/Con_2b is 74.5 % of HeCon Ab (GpH7-A5/GpH7-B3/GpL16-k0 = 100). In addition, in assay [2], the He/Con_1a is 108 % of HeCon Ab (GpH7-A5/GpH7-B3/GpL16-k0 = 100).

B3: GpH7-A5/GpH7-B3 variant Y300_02A/GpL16-k0 (antibody, human IgG1, kappa)
heavy 1: not shown
heavy 2: not shown
light: DIVMTQSPLSLPVTPGEPASISCQASESLVHSNRNTYLHWYLQKPGQSPQLLIYKVSNRFSGVPDRFSGSGSGTDFTLKISRVEAEDVGVYYCSQNTHVPPTFGQGTKVEIERTVAAPSVFIFPPSDEQLKSGTASVVCLLNNFYPREAKVQWKVDNALQSGNSQESVTEQDSKDSTYSLSSTLTLSKADYEKHKVYACEVTHQGLSSPVTKSFNRGEC
notes: as for B1
In the case of B3, the He/Con_2b in assay [1] was 69.2 % of HeCon Ab (GpH7-A5/GpH7-B3/GpL16-k0 = 100). Also, in assay [2], the He/Con_1a is 112 % of HeCon Ab (GpH7-A5/GpH7-B3/GpL16-k0 = 100).

B4: GpH7-A5/GpH7-B3 variant Y296_14T/GpL16-k0 (antibody, human IgG1, kappa)
heavy 1: not shown
heavy 2: not shown
light: DIVMTQSPLSLPVTPGEPASISCQASESLVHSNRNTYLHWYLQKPGQSPQLLIYKVSNRFSGVPDRFSGSGSGTDFTLKISRVEAEDVGVYYCSQNTHVPPTFGQGTKVEIERTVAAPSVFIFPPSDEQLKSGTASVVCLLNNFYPREAKVQWKVDNALQSGNSQESVTEQDSKDSTYSLSSTLTLSKADYEKHKVYACEVTHQGLSSPVTKSFNRGEC
notes: as for B1
On to B4, for which, in assay [1], the He/Con_2b is 88.2 % of HeCon Ab (GpH7-A5/GpH7-B3/GpL16-k0 = 100). In assay [2], the He/Con_1a is 105 % of HeCon Ab (GpH7-A5/GpH7-B3/GpL16-k0 = 100).

B5: GpH7-A5/GpH7-B3 variant Y296_08L/GpL16-k0 (antibody, human IgG1, kappa)
heavy 1: not shown
heavy 2: not shown
light: DIVMTQSPLSLPVTPGEPASISCQASESLVHSNRNTYLHWYLQKPGQSPQLLIYKVSNRFSGVPDRFSGSGSGTDFTLKISRVEAEDVGVYYCSQNTHVPPTFGQGTKVEIERTVAAPSVFIFPPSDEQLKSGTASVVCLLNNFYPREAKVQWKVDNALQSGNSQESVTEQDSKDSTYSLSSTLTLSKADYEKHKVYACEVTHQGLSSPVTKSFNRGEC
notes: as for B1
For the molecule B5, in assay [1], the He/Con_2b was 82.3 % of HeCon Ab (GpH7-A5/GpH7-B3/GpL16-k0 = 100). Moreover, the He/Con_1a in assay [2] is 104 % of HeCon Ab (GpH7-A5/GpH7-B3/GpL16-k0 = 100).

B6: GpH7-A5/GpH7-B3 variant Y300_09D/GpL16-k0 (antibody, human IgG1, kappa)
heavy 1: not shown
heavy 2: not shown
light: DIVMTQSPLSLPVTPGEPASISCQASESLVHSNRNTYLHWYLQKPGQSPQLLIYKVSNRFSGVPDRFSGSGSGTDFTLKISRVEAEDVGVYYCSQNTHVPPTFGQGTKVEIERTVAAPSVFIFPPSDEQLKSGTASVVCLLNNFYPREAKVQWKVDNALQSGNSQESVTEQDSKDSTYSLSSTLTLSKADYEKHKVYACEVTHQGLSSPVTKSFNRGEC
notes: as for B1
B6: the He/Con_2b in assay [1] was 93.2 % of HeCon Ab (GpH7-A5/GpH7-B3/GpL16-k0 = 100). Besides, the He/Con_1a in assay [2] is 112 % of HeCon Ab (GpH7-A5/GpH7-B3/GpL16-k0 = 100).

B7: GpH7-A5/GpH7-B3 variant Y296_19Q/GpL16-k0 (antibody, human IgG1, kappa)
heavy 1: not shown
heavy 2: not shown
light: DIVMTQSPLSLPVTPGEPASISCQASESLVHSNRNTYLHWYLQKPGQSPQLLIYKVSNRFSGVPDRFSGSGSGTDFTLKISRVEAEDVGVYYCSQNTHVPPTFGQGTKVEIERTVAAPSVFIFPPSDEQLKSGTASVVCLLNNFYPREAKVQWKVDNALQSGNSQESVTEQDSKDSTYSLSSTLTLSKADYEKHKVYACEVTHQGLSSPVTKSFNRGEC
notes: as for B1
Turning to B7, the He/Con_2b in assay [1] was 89.3 % of HeCon Ab (GpH7-A5/GpH7-B3/GpL16-k0 = 100). The He/Con_1a in assay [2] was 112 % of HeCon Ab (GpH7-A5/GpH7-B3/GpL16-k0 = 100).

B8: GpH7-A5/GpH7-B3 variant Y296_11K/GpL16-k0 (antibody, human IgG1, kappa)
heavy 1: not shown
heavy 2: not shown
light: DIVMTQSPLSLPVTPGEPASISCQASESLVHSNRNTYLHWYLQKPGQSPQLLIYKVSNRFSGVPDRFSGSGSGTDFTLKISRVEAEDVGVYYCSQNTHVPPTFGQGTKVEIERTVAAPSVFIFPPSDEQLKSGTASVVCLLNNFYPREAKVQWKVDNALQSGNSQESVTEQDSKDSTYSLSSTLTLSKADYEKHKVYACEVTHQGLSSPVTKSFNRGEC
notes: as for B1
For the molecule B8, the He/Con_2b in assay [1] is 72.8 % of HeCon Ab (GpH7-A5/GpH7-B3/GpL16-k0 = 100). In addition, the He/Con_1a in assay [2] is 105 % of HeCon Ab (GpH7-A5/GpH7-B3/GpL16-k0 = 100).

B9: GpH7-A5/GpH7-B3 variant Y300_01G/GpL16-k0 (antibody, human IgG1, kappa)
heavy 1: not shown
heavy 2: not shown
light: DIVMTQSPLSLPVTPGEPASISCQASESLVHSNRNTYLHWYLQKPGQSPQLLIYKVSNRFSGVPDRFSGSGSGTDFTLKISRVEAEDVGVYYCSQNTHVPPTFGQGTKVEIERTVAAPSVFIFPPSDEQLKSGTASVVCLLNNFYPREAKVQWKVDNALQSGNSQESVTEQDSKDSTYSLSSTLTLSKADYEKHKVYACEVTHQGLSSPVTKSFNRGEC
notes: as for B1
Consider B9, for which the He/Con_2b in assay [1] was 48.4 % of HeCon Ab (GpH7-A5/GpH7-B3/GpL16-k0 = 100). In addition, the He/Con_1a in assay [2] was 116 % of HeCon Ab (GpH7-A5/GpH7-B3/GpL16-k0 = 100).

B10: GpH7-A5/GpH7-B3 variant Y296_09D/GpL16-k0 (antibody, human IgG1, kappa)
heavy 1: not shown
heavy 2: not shown
light: DIVMTQSPLSLPVTPGEPASISCQASESLVHSNRNTYLHWYLQKPGQSPQLLIYKVSNRFSGVPDRFSGSGSGTDFTLKISRVEAEDVGVYYCSQNTHVPPTFGQGTKVEIERTVAAPSVFIFPPSDEQLKSGTASVVCLLNNFYPREAKVQWKVDNALQSGNSQESVTEQDSKDSTYSLSSTLTLSKADYEKHKVYACEVTHQGLSSPVTKSFNRGEC
notes: as for B1
Turning to B10, in assay [1], the He/Con_2b was 98.9 % of HeCon Ab (GpH7-A5/GpH7-B3/GpL16-k0 = 100). Further, in assay [2], the He/Con_1a was 106 % of HeCon Ab (GpH7-A5/GpH7-B3/GpL16-k0 = 100).
